The labels stand for the following.
B1: VTI1B (parent)
chain: ANETLAEMEEELRYAPLSFRNPMM
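Also: lentivirally expressed fusions sorted by FACS into six bins by GFP to DsRed ratio, PSI derived from sequencing read proportions per bin multiplied by bin number.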

In the data set the parent is B1. The data set can be described thus: protein stability index of a GFP-peptide fusion (GPS, HEK-293T) (PSI 1-6); higher = more stable. The conditions noted are these: c terminus: a fixed tail appended.
Regarding ANETLAEMREELRYAPLSFRNPMM, the protein stability index worked out at 1.4. Consider ANETLAEMVEELRYAPLSFRNPMM, for which the protein stability index came to 1.66. On to ANETLAEMYEELRYAPLSFRNPMM, for which the protein stability index amounted to 2.48. With ANETLAEMDEELRYAPLSFRNPMM, the protein stability index is 2.85.

On to ANETLAEMNEELRYAPLSFRNPMM, for which the protein stability index stood at 2.87. Then ANETLAEMTEELRYAPLSFRNPMM, with 2.94; and ANETLAEMLEELRYAPLSFRNPMM, with 2.45. Then ANETLAEMFEELRYAPLSFRNPMM, with 2.71; and ANETLAEMMEELRYAPLSFRNPMM, with 2.19. Then ANETLAEMSEELRYAPLSFRNPMM, with 2.78; and ANETLAEMWEELRYAPLSFRNPMM, with 1.3; and ANETLAEMHEELRYAPLSFRNPMM, with 3.27.

For the variant ANETLAEMKEELRYAPLSFRNPMM, the protein stability index is 1.8. As for ANETLAEMCEELRYAPLSFRNPMM, the figure is 2.33; as for ANETLAEMPEELRYAPLSFRNPMM, 3.22; as for ANETLAEMAEELRYAPLSFRNPMM, 2.44. For the variant ANETLAEMGEELRYAPLSFRNPMM, the protein stability index was determined as 2.19. Then ANETLAEMIEELRYAPLSFRNPMM, with 3.61; and ANETLAEMEETLRYAPLSFRNPMM, with 3.25. As for ANETLAEMEEMLRYAPLSFRNPMM, the figure is 2.45; as for ANETLAEMEEFLRYAPLSFRNPMM, 1.66; as for ANETLAEMEEYLRYAPLSFRNPMM, 2.51. As to ANETLAEMEERLRYAPLSFRNPMM, the protein stability index was determined as 2.31. As for ANETLAEMEEILRYAPLSFRNPMM, the figure is 2.69; as for ANETLAEMEESLRYAPLSFRNPMM, 3.02; as for ANETLAEMEEDLRYAPLSFRNPMM, 2.13. Then ANETLAEMEEKLRYAPLSFRNPMM, with 3.41. Then ANETLAEMEEVLRYAPLSFRNPMM, with 1.65; and ANETLAEMEEQLRYAPLSFRNPMM, with 1.95. For ANETLAEMEENLRYAPLSFRNPMM, the protein stability index is 2.81. As for ANETLAEMEECLRYAPLSFRNPMM, the figure is 2.22; as for ANETLAEMEEPLRYAPLSFRNPMM, 2.17; as for ANETLAEMEEALRYAPLSFRNPMM, 2. Then ANETLAEMEEWLRYAPLSFRNPMM, with 1.55; and ANETLAEMEEHLRYAPLSFRNPMM, with 2.89; and ANETLAEMEELLRYAPLSFRNPMM, with 2.29. For the variant ANETLANMEEELRYAPLSFRNPMM, the protein stability index amounted to 2.61.

Turning to ANETLAYMEEELRYAPLSFRNPMM, the protein stability index worked out at 2.31. As to ANETLAMMEEELRYAPLSFRNPMM, the protein stability index worked out at 2.21. As for ANETLAKMEEELRYAPLSFRNPMM, the figure is 2.52; as for ANETLALMEEELRYAPLSFRNPMM, 2.5. On to ANETLARMEEELRYAPLSFRNPMM, for which the protein stability index came out at 1.17. Then ANETLAHMEEELRYAPLSFRNPMM, with 2.2. Then ANETLADMEEELRYAPLSFRNPMM, with 2.69; and ANETLAAMEEELRYAPLSFRNPMM, with 2.85; and ANETLAQMEEELRYAPLSFRNPMM, with 2.31. For the variant ANETLATMEEELRYAPLSFRNPMM, the protein stability index was found to be 2.53. As for ANETLACMEEELRYAPLSFRNPMM, the figure is 2.01; as for ANETLAGMEEELRYAPLSFRNPMM, 1.9. As for ANETLAWMEEELRYAPLSFRNPMM, the figure is 1.57; as for ANETLASMEEELRYAPLSFRNPMM, 2.84. As for ANETLAFMEEELRYAPLSFRNPMM, the figure is 2.1; as for ANETLDEMEEELRYAPLSFRNPMM, 3.76.

In the case of ANETLQEMEEELRYAPLSFRNPMM, the protein stability index was 2.79. Then ANETLWEMEEELRYAPLSFRNPMM, with 2.05; and ANETLNEMEEELRYAPLSFRNPMM, with 2.75; and ANETLREMEEELRYAPLSFRNPMM, with 2.67. As for ANETLTEMEEELRYAPLSFRNPMM, the figure is 1.79; as for ANETLMEMEEELRYAPLSFRNPMM, 2.86; as for ANETLEEMEEELRYAPLSFRNPMM, 2.77. Then ANETLLEMEEELRYAPLSFRNPMM, with 1.88. ANETLFEMEEELRYAPLSFRNPMM: the protein stability index turned out to be 3.33. Then ANETLPEMEEELRYAPLSFRNPMM, with 2.51. Then ANETLHEMEEELRYAPLSFRNPMM, with 2.4; and ANETLGEMEEELRYAPLSFRNPMM, with 2.17. For ANETLYEMEEELRYAPLSFRNPMM, the protein stability index turned out to be 2.18. On to ANETLVEMEEELRYAPLSFRNPMM, for which the protein stability index was determined as 2.16. Then ANETLSEMEEELRYAPLSFRNPMM, with 2.73; and ANETLKEMEEELRYAPLSFRNPMM, with 2.78; and ANETLCEMEEELRYAPLSFRNPMM, with 2.12. Consider ANETLIEMEEELRYAPLSFRNPMM, for which the protein stability index came out at 1.85. With ANFTLAEMEEELRYAPLSFRNPMM, the protein stability index is 1.96. Then ANWTLAEMEEELRYAPLSFRNPMM, with 2.29; and ANCTLAEMEEELRYAPLSFRNPMM, with 2.01; and ANMTLAEMEEELRYAPLSFRNPMM, with 2.1. As for ANTTLAEMEEELRYAPLSFRNPMM, the figure is 2.01; as for ANKTLAEMEEELRYAPLSFRNPMM, 2.85; as for ANHTLAEMEEELRYAPLSFRNPMM, 2.43.

As for ANSTLAEMEEELRYAPLSFRNPMM, the protein stability index was 2.27. As for ANQTLAEMEEELRYAPLSFRNPMM, the figure is 2.53. With ANPTLAEMEEELRYAPLSFRNPMM, the protein stability index was 2.26. Then ANLTLAEMEEELRYAPLSFRNPMM, with 1.38; and ANATLAEMEEELRYAPLSFRNPMM, with 2.18. ANVTLAEMEEELRYAPLSFRNPMM: the protein stability index stood at 2.13. Then ANNTLAEMEEELRYAPLSFRNPMM, with 2.43; and ANDTLAEMEEELRYAPLSFRNPMM, with 2.97. As for ANYTLAEMEEELRYAPLSFRNPMM, the figure is 1.94; as for ANGTLAEMEEELRYAPLSFRNPMM, 2.51. As for ANITLAEMEEELRYAPLSFRNPMM, the figure is 2.1; as for ANETWAEMEEELRYAPLSFRNPMM, 2.01; as for ANETIAEMEEELRYAPLSFRNPMM, 2.16. Regarding ANETHAEMEEELRYAPLSFRNPMM, the protein stability index amounted to 3.14.

Take ANETQAEMEEELRYAPLSFRNPMM: the protein stability index amounted to 2.86. As for ANETTAEMEEELRYAPLSFRNPMM, the figure is 3.01.
